Test results as given in article PMC3127458 (Biochemistry, 2010).

Target: the molecule itself
Experiment: SEC

B1: AppA Q63E full-length (natural protein, Rhodobacter sphaeroides, UniProt Q53119 1-450, looked up)
chain: MQHDLEADVTMTGSDLVSCCYRSLAAPDLTLRDLLDIVETSQAHNARAQLTGALFYSQGVFFEWLEGRPAAVAEVMTHIQRDRRHSNVEILAEEPIAKRRFAGWHMQLSCSEADMRSLGLAESRQIVTVGRSLVADNTNIFSFDRIAAVRRFLSDVCAARTLAPDTPVEADTFALYALTEAQAGRSGRAKAVARLSDLLSTDPLGRLTEVEELLRAHAPTAADFARLFEACAERLTRALAEDRISRMQVTLAYSALQMALRRIHHLPDPQKSVGAVLVAGVPGHKPILEAALAAEMLRAVGWSTSVVHPESVAALAARLKTSRTSTLVVAPSLLEGTEQEADTLRFVSALRARTDLPGLSILVGGRLAQLPPSKLKDSGADAGFAHLALLPAALARVACPANADCCSMRACRMPASQCCDKRINPEFLLANVMPSVLTRISSRQDRRRSA
  stoichiometry N: 2

B2: AppA Q63L full-length (natural protein, Rhodobacter sphaeroides, UniProt Q53119 1-450, looked up)
chain: MQHDLEADVTMTGSDLVSCCYRSLAAPDLTLRDLLDIVETSQAHNARAQLTGALFYSQGVFFLWLEGRPAAVAEVMTHIQRDRRHSNVEILAEEPIAKRRFAGWHMQLSCSEADMRSLGLAESRQIVTVGRSLVADNTNIFSFDRIAAVRRFLSDVCAARTLAPDTPVEADTFALYALTEAQAGRSGRAKAVARLSDLLSTDPLGRLTEVEELLRAHAPTAADFARLFEACAERLTRALAEDRISRMQVTLAYSALQMALRRIHHLPDPQKSVGAVLVAGVPGHKPILEAALAAEMLRAVGWSTSVVHPESVAALAARLKTSRTSTLVVAPSLLEGTEQEADTLRFVSALRARTDLPGLSILVGGRLAQLPPSKLKDSGADAGFAHLALLPAALARVACPANADCCSMRACRMPASQCCDKRINPEFLLANVMPSVLTRISSRQDRRRSA
  stoichiometry N: 2
